Molecular target: T1, B淋巴细胞刺激因子(BLyS)蛋白 (human, UniProt Q9Y275 134-285, biotinylated (生物素化, sites not stated))
T1 construct: The protein was harvested from the culture supernatant, so it may be the soluble form; It was biotinylated for the ForteBio assay; also called BAFF; 抗原BLyS; not shown: His tag from vector p3457-his
Experiment: ForteBio (BLI): biotinylated BLyS at 20 μg/ml loaded, B-11ScFv in 2-fold dilutions from 25 to 0.78125 μg/ml in PBS pH 7.4

Kd: 3.08 nM
B1: 抗BLyS单链抗体B-11ScFv (scFv, V domains shown)
VH: EVQLQESGGGLVQPGGSLRLSCAASGFTFSRYWMLWVRQAPGKGLVWVSRINTDGSSTWYADSVKGRFTISRDNAKNTLYLQMNSLRAEDTAVYYCARDQDGVGATHDYWGQGTLVTVSS
notes: Secreted from 293E cells out of plasmid p3457B-11ScFv and purified on a nickel column, about 30 kDa; also called 11号ScFv; 抗人BLyS ScFv抗体; not shown: His tag from vector p3457his (Ni column purification, anti-His blot)

Source: CN104628856A (INST RADIATION MED AMMS PLA; BEIJING C & N INTERNAT SCI …, dated 2015)
